Test results published in article PMC4357141.

Target: GST-sPol_PR_(D25N) (Glutathione S-Transferase tagged HIV-1 Pol polyprotein with a catalytically dead protease) (HIV-1)
Test: AlphaScreen or HTRF; titration: GST-sPol_PR_(D25N) constant at 20 nM, WT or D366N Flag-LEDGF/p75 titrated from 50 nM downward (1:2.5 series); glutathione donor and anti-Flag acceptor beads; 25 mM Tris/HCl pH 7.5, 150 mM NaCl, 1 mM DTT, 1 mM MgCl2, 0.1% BSA, 0.1% Tween 20; 1 h at 4°C, then 1 h at 23°C with beads; apparent

With “Flag-LEDGF/p75 WT (lens epithelium-derived growth factor p75) (from UniProt O75475 1-530) (natural protein)” the Kd was 3.1 nM.
